Source: patent publication US20260174875A1 (Novo Nordisk A/S, priority 2023, published 2026)
Numbered stars: 1 amine (or outer) side, 2 acyl side, 3 side chain; on linkers, the order of the positions; unused ones are H or OH. Square brackets hold non-standard residues; d marks the D form. Side chains are listed from the residue outwards. * marks the point of attachment. C20 diacid = O=C(O)CCCCCCCCCCCCCCCCCCC(=O)*; C18 diacid = O=C(O)CCCCCCCCCCCCCCCCC(=O)*; γGlu = O=C(O)[C@H](CCC(=O)[*:2])N[*:1]; AEEA = NCCOCCOCC(=O)O; Aib = CC(C)(N)C(=O)O

T1: human GIP receptor (human, UniProt P48546 22-466)
T1 sequence (looked up): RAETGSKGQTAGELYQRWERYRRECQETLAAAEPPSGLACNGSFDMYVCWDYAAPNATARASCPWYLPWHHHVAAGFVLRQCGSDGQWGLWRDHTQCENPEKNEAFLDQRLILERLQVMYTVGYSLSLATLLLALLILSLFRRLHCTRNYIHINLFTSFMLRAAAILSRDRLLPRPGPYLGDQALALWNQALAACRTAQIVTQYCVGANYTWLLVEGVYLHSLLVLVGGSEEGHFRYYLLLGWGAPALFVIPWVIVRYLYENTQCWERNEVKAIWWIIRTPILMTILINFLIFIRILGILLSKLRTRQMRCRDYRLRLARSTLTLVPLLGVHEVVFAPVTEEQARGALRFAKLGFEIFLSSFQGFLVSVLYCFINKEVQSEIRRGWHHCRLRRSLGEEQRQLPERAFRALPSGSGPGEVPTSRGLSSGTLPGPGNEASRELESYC

T2: human amylin-3(a) receptor (human, UniProt P30988 25-474; O60896 24-148)
T2 sequence (looked up) 1: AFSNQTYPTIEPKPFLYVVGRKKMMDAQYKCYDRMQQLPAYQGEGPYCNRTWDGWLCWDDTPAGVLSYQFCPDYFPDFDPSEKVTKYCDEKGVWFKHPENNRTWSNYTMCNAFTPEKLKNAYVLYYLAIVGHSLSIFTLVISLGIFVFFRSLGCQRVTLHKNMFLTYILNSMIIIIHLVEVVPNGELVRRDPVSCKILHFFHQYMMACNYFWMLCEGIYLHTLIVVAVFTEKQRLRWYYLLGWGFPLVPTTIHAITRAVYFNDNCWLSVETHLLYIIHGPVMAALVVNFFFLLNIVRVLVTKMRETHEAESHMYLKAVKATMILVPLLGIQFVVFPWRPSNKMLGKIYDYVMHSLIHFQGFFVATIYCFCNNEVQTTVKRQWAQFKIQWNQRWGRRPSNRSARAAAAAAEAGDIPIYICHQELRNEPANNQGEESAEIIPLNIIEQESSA
T2 sequence (looked up) 2: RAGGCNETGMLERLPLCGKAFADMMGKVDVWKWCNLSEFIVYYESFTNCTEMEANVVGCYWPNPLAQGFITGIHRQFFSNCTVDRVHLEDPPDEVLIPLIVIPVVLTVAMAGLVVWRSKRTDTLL


How the values were obtained:
Assay in all cases: cell-based or functional assay
human GIP receptor [1] = target: T1, human GIP receptor
[2] = target: T2, human amylin-3(a) receptor
human GLP-1 receptor [3] = target: T3, human GLP-1 receptor (human, UniProt P43220 24-463)
human GIP receptor [4] = target: T1, human GIP receptor; remark: listed apart in the source
[5] = target: T2, human amylin-3(a) receptor; remark: listed apart in the source
human GLP-1 receptor [6] = target: T3, human GLP-1 receptor; remark: listed apart in the source

Binder | hGIPR Potency, 1% HSA, EC50 [pM] (human GIP receptor [1]) | hAMYR3 Potency, 1% HSA, EC50 [pM] [2] | hGLP-1R Potency, 1% HSA, EC50 [pM] (human GLP-1 receptor [3]) | hGIPR Potency, no HSA, EC50 [pM] (human GIP receptor [4]) | hAMYR3 Potency, no HSA, EC50 [pM] [5] | hGLP-1R Potency, no HSA, EC50 [pM] (human GLP-1 receptor [6])
Compound 73 (peptide) peptide: H[Aib]HGTFTSDYSILLEEQAAREFIEWLLAGGPSK([AEEA-AEEA-γGlu-C18 diacid])GEASQLSTAALGRLSAELHRLATLPRTETGSGSP-NH2 | 96.5 pM | 61.5 pM | 54.1 pM | 4.98 pM | 1.99 pM | 4.55 pM
Compound 71 (peptide) peptide: H[Aib]HGTFTSDYSILLEEQAAREFIEWLLAGGPSRGAPPPSGGGEASHLSTQTQGRLSAELHK([AEEA-AEEA-γGlu-C18 diacid])LATLPRTETGSGSP-NH2 | 9.28 pM | 274 pM | 18.4 pM | 2.77 pM | 8.66 pM | 3.34 pM
Compound 70 (peptide) peptide: H[Aib]HGTFTSDYSILLEEQAAREFIEWLLAGGPSRGAPPPSGGGEASELSTAALGRLSAELHK([AEEA-AEEA-γGlu-C18 diacid])LATLPRTETGSGSP-NH2 | 19.1 pM | 59.4 pM | 18.4 pM | 5.89 pM | 4.53 pM | 3.48 pM
Compound 74 (peptide) peptide: Y[Aib]EGTFTSDYSILLEEQAAREFIEWLLAGGPSGGEASHLSTAQTQRLSAELHK([AEEA-AEEA-γGlu-C18 diacid])LATLPRTETGSGSP-NH2 | 18.7 pM | 134 pM | 141 pM | 2.51 pM | 2.73 pM | 29.8 pM
Compound 72 (peptide) peptide: Y[Aib]EGTFTSDYSILLEEQAAREFIEWLLAGGPSRGAPPPSGGGEASHLSTQTQGRLSAELHK([AEEA-AEEA-γGlu-C18 diacid])LATLPRTETGSGSP-NH2 | 9.79 pM | 589 pM | 41.7 pM | 2.12 pM | 6.57 pM | 13.1 pM
Compound 69 (peptide) peptide: H[Aib]HGTFTSDYSILLEEQAAREFIEWLLAGGPSRGEASHLSTAQTQRLSAELHK([AEEA-AEEA-γGlu-C18 diacid])LATLPRTETGSGSP-NH2 | 8.05 pM | 78.9 pM | 20.4 pM | 1.9 pM | 3.43 pM | 3.45 pM
Compound 68 (peptide) peptide: Y[Aib]EGTFTSDYSILLEEQAAREFIEWLLAGGPSRGEASHLSTAQTQRLSAELHK([AEEA-AEEA-γGlu-C18 diacid])LATLPRTETGSGSP-NH2 | 11.9 pM | 230 pM | 51.9 pM | 1.83 pM | 2.57 pM | 12.1 pM

The remaining lines, values ahead:

hGIPR Potency, 1% HSA, EC50 [pM] (human GIP receptor [1]) | hAMYR3 Potency, 1% HSA, EC50 [pM] [2] | hGLP-1R Potency, 1% HSA, EC50 [pM] (human GLP-1 receptor [3]) | hGIPR Potency, no HSA, EC50 [pM] (human GIP receptor [4]) | hAMYR3 Potency, no HSA, EC50 [pM] [5] | hGLP-1R Potency, no HSA, EC50 [pM] (human GLP-1 receptor [6]) | Binder
11.9 pM | 110 pM | 25.2 pM | 2.65 pM | 2.49 pM | 3.66 pM | Compound 75 (peptide) peptide: H[Aib]HGTFTSDYSILLEEQAAREFIEWLLAGGPSGGEASHLSTAQTQRLSAELHK([AEEA-AEEA-γGlu-C18 diacid])LATLPRTETGSGSP-NH2
13.6 pM | 45.7 pM | 9.89 pM | 2.92 pM | 2.9 pM | 2.3 pM | Compound 83 (peptide) peptide: H[Aib]HGTFTSDYSILLEEQAAREFIEWLLAGGPSSGEASHLSTAQTQRLSAELHRLK([AEEA-AEEA-γGlu-C18 diacid])TLPRTETGSGSP-NH2
13.4 pM | 382 pM | 51.4 pM | 2.53 pM | 3.13 pM | 19.7 pM | Compound 77 (peptide) peptide: Y[Aib]EGTFTSDYSILLEEQAAREFIEWLLAGGPSSGAGQAPGQAPLASHLSTAQTQRLSAELHK([AEEA-AEEA-γGlu-C20 diacid])LATLPRTETGSGSP-NH2
11.6 pM | 175 pM | 25.9 pM | 3 pM | 4.41 pM | 3.31 pM | Compound 84 (peptide) peptide: H[Aib]HGTFTSDYSILLEEQAAREFIEWLLAGGPSSGEASHLSTAQTQRLSAELHRLATLPK([AEEA-AEEA-γGlu-C18 diacid])TETGSGSP-NH2
24.7 pM | 53.4 pM | 168 pM | 4.7 pM | 3.53 pM | 38.7 pM | Compound 79 (peptide) peptide: Y[Aib]EGTFTSDYSILLEEQAAREFIEWLLAGGPSSGEASHLSTAQTQRLSAK([AEEA-AEEA-γGlu-C18 diacid])LHRLATLPRTETGSGSP-NH2
15.8 pM | 188 pM | 51.4 pM | 3.31 pM | 4.07 pM | 16 pM | Compound 81 (peptide) peptide: Y[Aib]EGTFTSDYSILLEEQAAREFIEWLLAGGPSSGEASHLSTAQTQRLSAELHRLATLPK([AEEA-AEEA-γGlu-C18 diacid])TETGSGSP-NH2
20.2 pM | 62.4 pM | 111 pM | 4.01 pM | 3.23 pM | 24.8 pM | Compound 80 (peptide) peptide: Y[Aib]EGTFTSDYSILLEEQAAREFIEWLLAGGPSSGEASHLSTAQTQRLSAELHRLK([AEEA-AEEA-γGlu-C18 diacid])TLPRTETGSGSP-NH2
19.1 pM | 38 pM | 24.2 pM | 3.7 pM | 3.26 pM | 3.45 pM | Compound 82 (peptide) peptide: H[Aib]HGTFTSDYSILLEEQAAREFIEWLLAGGPSSGEASHLSTAQTQRLSAK([AEEA-AEEA-γGlu-C18 diacid])LHRLATLPRTETGSGSP-NH2
10.4 pM | 17.1 pM | 17.8 pM | 3.49 pM | 1.83 pM | 4.03 pM | Compound 78 (peptide) peptide: H[Aib]HGTFTSDYSILLEEQAAREFIEWLLAGGPSSGAGQAPGQAPGASHLSTAQTQRLSAK([AEEA-AEEA-γGlu-C18 diacid])LHRLATLPRTETGSGSP-NH2
11.1 pM | 430 pM | 63.6 pM | 2.82 pM | 3.11 pM | 19.9 pM | Compound 76 (peptide) peptide: Y[Aib]EGTFTSDYSILLEEQAAREFIEWLLAGGPSSGAGQAPGQAPGASHLSTAQTQRLSAELHRLATLPK([AEEA-AEEA-γGlu-C20 diacid])TETGSGSP-NH2
